Measurements: patent US20230212319A1, “NOVEL ANTIGEN BINDING DOMAINS AND SYNTHETIC ANTIGEN RECEPTORS INCORPORATING THE SAME” (University of Southern California, priority 2020, published 2023)

B1: 22111 (protein)
chain: MALPVTALLLPLALLLHAARPEVQLLESGGGLVQPGGSLRLSCAASGFTFSSYAMSWVRQAPGKGLEWVSSISGSGDYIYYADSVKGRFTISRDISKNTLYLQMNSLRAEDTAVYYCAKEGTGANSSLADYRGQGTLVTVSSGTGGGGSGGGGSGGGGSEFDIQMTQSPSSLSASVGDRVTITCKASDHINNWLAWYQQKPGQAPKLLIYGATTLETGVPSRFSGSGSGTDYTLTISSLQPEDFATYYCQQSWNTPWTFGQGTKLEIKRLEDLKNVFPPEVAVFEPSEAEISHTQKATLVCLATGFYPDHVELSWWVNGKEVHSGVCTDPQPLKEQPALNDSRYCLSSRLRVSATFWQNPRNHFRCQVQFYGLSENDEWTQDRAKPVTQIVSAEAWGRADCGFTSESYQQGVLSATILYEILLGKATLYAVLVSALVLMAMVKRKDSRGRAKRSGSGATNFSLLKQAGDVEENPGPTSMDWIWRILFLVGAATGAHSFEQVQLQQPGAELVKPGASVKMSCKASGYAFSSYWINWMKQKPGQGLEWIGQIYPGDGDTNYNGKFKGRATLTADTSSSTAYMQLSSLTSEDSAVYFCARSITTVVGCAMDYWGQGTSVTVSSTRIQNPDPAVYQLRDSKSSDKSVCLFTDFDSQTNVSQSKDSDVYITDKCVLDMRSMDFKSNSAVAWSNKSDFACANAFNNSIIPEDTFFPSPESSCDVKLVEKSFETDTNLNFQNLSVIGFRILLLKVAGFNLLMTLRLWSSRAKRSGSGVKQTLNFDLLKLAGDVESNPGPSRGHMTEYKPTVRLATRDDVPRAVRTLAAAFADYPATRHTVDPDRHIERVTELQELFLTRVGLDIGKVWVADDGAAVAVWTTPESVEAGAVFAEIGPRMAELSGSRLAAQQQMEGLLAPHRPKEPAWFLATVGVSPDHQGKGLGSAVVLPGVEAAERAGVPAFLETSAPRNLPFYERLGFTVTADVEVPEGPRTWCMTRKPGA
B2: 22127 (protein)
chain: MALPVTALLLPLALLLHAARPMLPAPKNLVVSRITEDSARLSWTAPDAAFDSFPIRYIETLIWGEAIWLDVPGSERSYDLTGLKPGTEYAVVITGVKGGRFSSPLVASFTTGTGGGGSGGGGSGGGGSEFDIQMTQSPSSLSASVGDRVTITCKASDHINNWLAWYQQKPGQAPKLLIYGATTLETGVPSRFSGSGSGTDYTLTISSLQPEDFATYYCQQSWNTPWTFGQGTKLEIKRLEIQNPDPAVYQLRDSKSSDKSVCLFTDFDSQTNVSQSKDSDVYITDKCVLDMRSMDFKSNSAVAWSNKSDFACANAFNNSIIPEDTFFPSSDVPCDVKLVEKSFETDTNLNFQNLSVIGFRILLLKVAGFNLLMTLRLWSSRAKRSGSGVKQTLNFDLLKLAGDVESNPGPTSATMDWIWRILFLVGAATGAHSGPQVQLQESGGGLAQAGGSLRLSCAASGRTFSMGWFRQAPGKEREFVAAITYSGGSPYYASSVRGRFTISRDNAKNTVYLQMNSLKPEDTAVYYCAANPTYGSDWNAENWGQGTQVTVSSGSGGGGSGGGGSGGGGSFEQVQLQQPGAELVKPGASVKMSCKASGYAFSSYWINWMKQKPGQGLEWIGQIYPGDGDTNYNGKFKGRATLTADTSSSTAYMQLSSLTSEDSAVYFCARSITTVVGCAMDYWGQGTSVTVSSTREDLKNVFPPEVAVFEPSKAEIAHTQKATLVCLATGFYPDHVELSWWVNGKEVHSGVCTDPQPLKEQPALNDSRYCLSSRLRVSATFWQNPRNHFRCQVQFYGLSENDEWTQDRAKPVTQIVSAEAWGRADCGITSASYHQGVLSATILYEILLGKATLYAVLVSALVLMAMVKRKDSRGRAKRSGSGATNFSLLKQAGDVEENPGPSRGHMTEYKPTVRLATRDDVPRAVRTLAAAFADYPATRHTVDPDRHIERVTELQELFLTRVGLDIGKVWVADDGAAVAVWTTPESVEAGAVFAEIGPRMAELSGSRLAAQQQMEGLLAPHRPKEPAWFLATVGVSPDHQGKGLGSAVVLPGVEAAERAGVPAFLETSAPRNLPFYERLGFTVTADVEVPEGPRTWCMTRKPGA
B3: 22129 (protein)
chain: MALPVTALLLPLALLLHAARPEVQVLESGGGLVQPGGSLRLSCAASGFTFSNFAMSWVRQAPGKGLEWVSTISGSAGTTDYADSVKGRFTISRDNSKKTLYLQMNSLRVEDTAVYYCADGRGPFFDYRGQGTLVTVSSGTGGGGSGGGGSGGGGSEFDIQMTQSPSSLSASVGDRVTITCKASDHINNWLAWYQQKPGQAPKLLIYGATTLETGVPSRFSGSGSGTDYTLTISSLQPEDFATYYCQQSWNTPWTFGQGTKLEIKRLEIQNPDPAVYQLRDSKSSDKSVCLFTDFDSQTNVSQSKDSDVYITDKCVLDMRSMDFKSNSAVAWSNKSDFACANAFNNSIIPEDTFFPSSDVPCDVKLVEKSFETDTNLNFQNLSVIGFRILLLKVAGFNLLMTLRLWSSRAKRSGSGVKQTLNFDLLKLAGDVESNPGPTSATMDWIWRILFLVGAATGAHSGPQVQLQESGGGLAQAGGSLRLSCAASGRTFSMGWFRQAPGKEREFVAAITYSGGSPYYASSVRGRFTISRDNAKNTVYLQMNSLKPEDTAVYYCAANPTYGSDWNAENWGQGTQVTVSSGSGGGGSGGGGSGGGGSFEQVQLQQPGAELVKPGASVKMSCKASGYAFSSYWINWMKQKPGQGLEWIGQIYPGDGDTNYNGKFKGRATLTADTSSSTAYMQLSSLTSEDSAVYFCARSITTVVGCAMDYWGQGTSVTVSSTREDLKNVFPPEVAVFEPSKAEIAHTQKATLVCLATGFYPDHVELSWWVNGKEVHSGVCTDPQPLKEQPALNDSRYCLSSRLRVSATFWQNPRNHFRCQVQFYGLSENDEWTQDRAKPVTQIVSAEAWGRADCGITSASYHQGVLSATILYEILLGKATLYAVLVSALVLMAMVKRKDSRGRAKRSGSGATNFSLLKQAGDVEENPGPSRGHMTEYKPTVRLATRDDVPRAVRTLAAAFADYPATRHTVDPDRHIERVTELQELFLTRVGLDIGKVWVADDGAAVAVWTTPESVEAGAVFAEIGPRMAELSGSRLAAQQQMEGLLAPHRPKEPAWFLATVGVSPDHQGKGLGSAVVLPGVEAAERAGVPAFLETSAPRNLPFYERLGFTVTADVEVPEGPRTWCMTRKPGA
B4: 22140 (protein)
chain: MALPVTALLLPLALLLHAARPACEVQLLESGGGLIQPGGSLRLSCAASGFTFSSHAMTWVRQAPGKGLEWVSAISGSGDYTHYADSVKGRFTISRDNSKNTVYLQMNSLRAEDSAVYYCAKDEDGGSLLGHRGQGTLVTVSSGTGGGGSGGGGSGGGGSEFDIQMTQSPSSLSASVGDRVTITCKASDHINNWLAWYQQKPGQAPKLLIYGATTLETGVPSRFSGSGSGTDYTLTISSLQPEDFATYYCQQSWNTPWTFGQGTKLEIKRLEGQPKANPTVTLFPPSSEELQANKATLVCLISDFYPGAVTVAWKADGSPVKAGVETTKPSKQSNNKYAASSYLSLTPEQWKSHRSYSCQVTHEGSTVEKTVAPTECSGRADCGFTSESYQQGVLSATILYEILLGKATLYAVLVSALVLMAMVKRKDSRGRAKRSGSGATNFSLLKQAGDVEENPGPTSATMDWIWRILFLVGAATGAHSGPQVQLQESGGGLAQAGGSLRLSCAASGRTFSMGWFRQAPGKEREFVAAITYSGGSPYYASSVRGRFTISRDNAKNTVYLQMNSLKPEDTAVYYCAANPTYGSDWNAENWGQGTQVTVSSGSGGGGSGGGGSGGGGSFEQVQLQQPGAELVKPGASVKMSCKASGYAFSSYWINWMKQKPGQGLEWIGQIYPGDGDTNYNGKFKGRATLTADTSSSTAYMQLSSLTSEDSAVYFCARSITTVVGCAMDYWGQGTSVTVSSTRASTKGPSVFPLAPSSKSTSGGTAALGCLVKDYFPEPVTVSWNSGALTSGVHTFPAVLQSSGLYSLSSVVTVPSSSLGTQTYICNVNHKPSNTKVDKRVEPKSCIPEDTFFPSPESSCDVKLVEKSFETDTNLNFQNLSVIGFRILLLKVAGFNLLMTLRLWSSRAKRSGSGVKQTLNFDLLKLAGDVESNPGPSRGHMTEYKPTVRLATRDDVPRAVRTLAAAFADYPATRHTVDPDRHIERVTELQELFLTRVGLDIGKVWVADDGAAVAVWTTPESVEAGAVFAEIGPRMAELSGSRLAAQQQMEGLLAPHRPKEPAWFLATVGVSPDHQGKGLGSAVVLPGVEAAERAGVPAFLETSAPRNLPFYERLGFTVTADVEVPEGPRTWCMTRKPGA

What follows are molecules tested on RAJI cells (assay: JNG assay, co-culture with RAJI cells). Settings: JNG cells expressing construct, co-culture with Raji.
Assay type: cell-based
Method in brief: (§1)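 Read-out is NFAT-driven GFP measured by flow cytometry after ~4–18 h co-culture of SAR-expressing JNG cells with target cells (E:T about 1:2). SARs were introduced by lentiviral spinfection and selected with puromycin or blasticidin when possible; scores (+/- to 5+ ≈ 5–50% GFP+) are relative to parental JNG cells.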

Row | Molecule | NFAT-GFP ASSAY: Raji
1 | B1 | 4+ (refer to approximately 5%, 10%, 20%, 30%, 40% and 50% GFP positive cells)
2 | B2 | Raji (+), Raji-CD19-KO (+), Nalm6 (+), L363 (+), RS411 (+) (refer to approximately 5%, 10%, 20%, 30%, 40% and 50% GFP positive cells)
3 | B3 | Raji (+), Raji-CD19-KO (+), Nalm6 (+), L363 (+), RS411 (+) (refer to approximately 5%, 10%, 20%, 30%, 40% and 50% GFP positive cells)
4 | B4 | 5+ (refer to approximately 5%, 10%, 20%, 30%, 40% and 50% GFP positive cells)

The molecules below were run on RAJI-CD19-KO cells (assay: JNG assay, co-culture with RAJI-CD19-KO cells). Settings: co-culture with Raji-CD19-KO.
Assay type: cell-based
Method in brief: as §1

Row | Molecule | NFAT-GFP ASSAY: Raji-CD19-KO
5 | B1 | 3+ (refer to approximately 5%, 10%, 20%, 30%, 40% and 50% GFP positive cells)
6 | B2 | Raji (+), Raji-CD19-KO (+), Nalm6 (+), L363 (+), RS411 (+) (refer to approximately 5%, 10%, 20%, 30%, 40% and 50% GFP positive cells)
7 | B3 | Raji (+), Raji-CD19-KO (+), Nalm6 (+), L363 (+), RS411 (+) (refer to approximately 5%, 10%, 20%, 30%, 40% and 50% GFP positive cells)
8 | B4 | 4+ (refer to approximately 5%, 10%, 20%, 30%, 40% and 50% GFP positive cells)

The molecules below were run on L363 cells (assay: JNG assay, co-culture with L363 cells). Settings: co-culture with L363.
Assay type: cell-based
Method in brief: as §1

Row | Molecule | NFAT-GFP ASSAY: L363
9 | B1 | 3+ (refer to approximately 5%, 10%, 20%, 30%, 40% and 50% GFP positive cells)
10 | B2 | Raji (+), Raji-CD19-KO (+), Nalm6 (+), L363 (+), RS411 (+) (refer to approximately 5%, 10%, 20%, 30%, 40% and 50% GFP positive cells)
11 | B3 | Raji (+), Raji-CD19-KO (+), Nalm6 (+), L363 (+), RS411 (+) (refer to approximately 5%, 10%, 20%, 30%, 40% and 50% GFP positive cells)
12 | B4 | 2+ (refer to approximately 5%, 10%, 20%, 30%, 40% and 50% GFP positive cells)

What follows are molecules tested on Nalm6 cells (assay: JNG assay, co-culture with Nalm6 cells). Settings: co-culture with Nalm6.
Assay type: cell-based
Method in brief: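 Drug-selected populations of SAR-expressing Jurkat-NFAT-GFP cells meet target cells (about 1:2 E:T) for roughly 4–18 h. Flow cytometry gives % GFP+ cells, graded +/- to 5+ (≈5% to ≈50%) relative to the parental control.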

Row | Molecule | NFAT-GFP ASSAY: Nalm6
13 | B1 | 2+ (refer to approximately 5%, 10%, 20%, 30%, 40% and 50% GFP positive cells)
14 | B2 | Raji (+), Raji-CD19-KO (+), Nalm6 (+), L363 (+), RS411 (+) (refer to approximately 5%, 10%, 20%, 30%, 40% and 50% GFP positive cells)
15 | B3 | Raji (+), Raji-CD19-KO (+), Nalm6 (+), L363 (+), RS411 (+) (refer to approximately 5%, 10%, 20%, 30%, 40% and 50% GFP positive cells)
16 | B4 | 5+ (refer to approximately 5%, 10%, 20%, 30%, 40% and 50% GFP positive cells)

What follows are molecules tested on RS;411 (assay: JNG assay, co-culture with RS;411 cells). Settings: co-culture with RS411.
Assay type: cell-based
Method in brief: as §1

Row | Molecule | NFAT-GFP ASSAY: RS411
17 | B1 | 4+ (refer to approximately 5%, 10%, 20%, 30%, 40% and 50% GFP positive cells)
18 | B2 | Raji (+), Raji-CD19-KO (+), Nalm6 (+), L363 (+), RS411 (+) (refer to approximately 5%, 10%, 20%, 30%, 40% and 50% GFP positive cells)
19 | B3 | Raji (+), Raji-CD19-KO (+), Nalm6 (+), L363 (+), RS411 (+) (refer to approximately 5%, 10%, 20%, 30%, 40% and 50% GFP positive cells)
20 | B4 | 4+ (refer to approximately 5%, 10%, 20%, 30%, 40% and 50% GFP positive cells)
